The text below walks through data of article PMC11897886 (Nucleic Acids Research, 2024).

Assay in all cases: pull-down
The target in series [1] is T1, Upf2-Ct (Saccharomyces cerevisiae, UniProt P38798 933-1089).
T1 sequence: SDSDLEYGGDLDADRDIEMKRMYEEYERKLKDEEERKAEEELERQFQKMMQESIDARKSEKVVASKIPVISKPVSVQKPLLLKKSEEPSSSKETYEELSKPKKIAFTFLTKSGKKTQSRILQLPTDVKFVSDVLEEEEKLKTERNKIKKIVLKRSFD

Series [2] concerns the target T2, Upf1-FL (Saccharomyces cerevisiae, UniProt P30771 1-971).
T2 sequence: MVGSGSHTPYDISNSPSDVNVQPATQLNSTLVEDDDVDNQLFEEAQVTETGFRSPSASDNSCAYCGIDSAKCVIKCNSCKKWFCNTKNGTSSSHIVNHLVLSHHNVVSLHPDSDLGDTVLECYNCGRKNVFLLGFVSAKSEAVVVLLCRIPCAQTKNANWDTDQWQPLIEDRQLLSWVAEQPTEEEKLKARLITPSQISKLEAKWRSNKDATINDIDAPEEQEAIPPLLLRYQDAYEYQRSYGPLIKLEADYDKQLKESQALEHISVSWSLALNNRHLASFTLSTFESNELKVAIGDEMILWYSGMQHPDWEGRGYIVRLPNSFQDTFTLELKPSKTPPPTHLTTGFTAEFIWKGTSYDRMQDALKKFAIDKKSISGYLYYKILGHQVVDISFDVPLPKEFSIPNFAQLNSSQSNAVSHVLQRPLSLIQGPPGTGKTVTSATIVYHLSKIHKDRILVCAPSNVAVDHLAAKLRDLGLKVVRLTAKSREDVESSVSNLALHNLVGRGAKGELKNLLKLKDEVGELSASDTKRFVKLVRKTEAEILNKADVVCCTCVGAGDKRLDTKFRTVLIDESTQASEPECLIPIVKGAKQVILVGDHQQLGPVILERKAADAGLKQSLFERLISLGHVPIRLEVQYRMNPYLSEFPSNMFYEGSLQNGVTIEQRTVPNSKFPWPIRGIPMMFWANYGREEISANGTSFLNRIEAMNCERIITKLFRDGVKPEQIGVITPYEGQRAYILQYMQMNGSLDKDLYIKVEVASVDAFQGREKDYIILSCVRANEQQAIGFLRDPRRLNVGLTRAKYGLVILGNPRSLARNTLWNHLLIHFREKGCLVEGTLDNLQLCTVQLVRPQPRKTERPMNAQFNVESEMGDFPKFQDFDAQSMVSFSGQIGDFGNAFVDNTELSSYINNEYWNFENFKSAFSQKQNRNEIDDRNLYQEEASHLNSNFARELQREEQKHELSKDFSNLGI

Series [3] has as its target T3, Dcp2-UBM (Saccharomyces cerevisiae, UniProt P53550 434-720).
T3 sequence: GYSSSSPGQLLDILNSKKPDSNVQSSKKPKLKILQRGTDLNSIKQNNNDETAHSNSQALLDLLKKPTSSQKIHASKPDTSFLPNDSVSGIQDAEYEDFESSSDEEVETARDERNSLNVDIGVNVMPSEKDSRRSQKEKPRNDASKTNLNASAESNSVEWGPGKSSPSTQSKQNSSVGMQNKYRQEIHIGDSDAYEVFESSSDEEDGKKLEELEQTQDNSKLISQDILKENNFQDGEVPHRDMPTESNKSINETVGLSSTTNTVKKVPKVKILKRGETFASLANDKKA

Series [4] addresses T4, Upf1-FL;Nmd4 (Saccharomyces cerevisiae;Saccharomyces …, UniProt P30771;Q12129 1-971;1-218, |).
T4 sequence 1: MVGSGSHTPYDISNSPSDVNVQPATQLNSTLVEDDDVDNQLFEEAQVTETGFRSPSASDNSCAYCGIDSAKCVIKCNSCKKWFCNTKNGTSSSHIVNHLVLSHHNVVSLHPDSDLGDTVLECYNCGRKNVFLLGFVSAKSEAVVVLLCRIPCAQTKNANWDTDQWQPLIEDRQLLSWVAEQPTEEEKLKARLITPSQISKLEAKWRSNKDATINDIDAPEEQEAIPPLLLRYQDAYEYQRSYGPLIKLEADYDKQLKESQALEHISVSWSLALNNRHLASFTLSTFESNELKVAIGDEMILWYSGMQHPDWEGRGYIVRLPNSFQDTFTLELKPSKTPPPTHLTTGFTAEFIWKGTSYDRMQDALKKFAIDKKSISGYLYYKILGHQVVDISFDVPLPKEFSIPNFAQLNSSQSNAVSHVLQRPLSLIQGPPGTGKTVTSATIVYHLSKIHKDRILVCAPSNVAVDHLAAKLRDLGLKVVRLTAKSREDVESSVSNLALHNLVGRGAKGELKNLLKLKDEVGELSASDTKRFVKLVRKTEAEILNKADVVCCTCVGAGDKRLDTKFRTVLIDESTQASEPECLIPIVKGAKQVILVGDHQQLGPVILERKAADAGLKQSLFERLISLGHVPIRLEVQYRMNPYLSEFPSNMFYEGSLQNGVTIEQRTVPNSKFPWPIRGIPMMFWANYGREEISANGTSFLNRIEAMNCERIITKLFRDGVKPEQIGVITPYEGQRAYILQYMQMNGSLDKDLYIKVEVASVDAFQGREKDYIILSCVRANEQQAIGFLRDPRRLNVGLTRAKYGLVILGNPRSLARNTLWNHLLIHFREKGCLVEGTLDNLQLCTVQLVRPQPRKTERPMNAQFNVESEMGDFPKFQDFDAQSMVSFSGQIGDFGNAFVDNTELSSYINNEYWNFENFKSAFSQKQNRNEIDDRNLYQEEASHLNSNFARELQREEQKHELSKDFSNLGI
T4 sequence 2: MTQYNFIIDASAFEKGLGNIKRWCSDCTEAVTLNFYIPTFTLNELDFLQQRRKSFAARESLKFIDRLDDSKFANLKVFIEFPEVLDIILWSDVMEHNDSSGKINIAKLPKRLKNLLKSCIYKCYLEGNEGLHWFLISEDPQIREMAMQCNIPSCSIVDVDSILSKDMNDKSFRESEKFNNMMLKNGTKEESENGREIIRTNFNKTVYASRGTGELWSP

The target in series [5] is T5, Upf1-FL;Nmd4;Dcp2-UBM (Saccharomyces cerevisiae;Saccharomyces …, UniProt P30771;Q12129;P53550 1-971;1-218;434-720, ||).
T5 sequence 1: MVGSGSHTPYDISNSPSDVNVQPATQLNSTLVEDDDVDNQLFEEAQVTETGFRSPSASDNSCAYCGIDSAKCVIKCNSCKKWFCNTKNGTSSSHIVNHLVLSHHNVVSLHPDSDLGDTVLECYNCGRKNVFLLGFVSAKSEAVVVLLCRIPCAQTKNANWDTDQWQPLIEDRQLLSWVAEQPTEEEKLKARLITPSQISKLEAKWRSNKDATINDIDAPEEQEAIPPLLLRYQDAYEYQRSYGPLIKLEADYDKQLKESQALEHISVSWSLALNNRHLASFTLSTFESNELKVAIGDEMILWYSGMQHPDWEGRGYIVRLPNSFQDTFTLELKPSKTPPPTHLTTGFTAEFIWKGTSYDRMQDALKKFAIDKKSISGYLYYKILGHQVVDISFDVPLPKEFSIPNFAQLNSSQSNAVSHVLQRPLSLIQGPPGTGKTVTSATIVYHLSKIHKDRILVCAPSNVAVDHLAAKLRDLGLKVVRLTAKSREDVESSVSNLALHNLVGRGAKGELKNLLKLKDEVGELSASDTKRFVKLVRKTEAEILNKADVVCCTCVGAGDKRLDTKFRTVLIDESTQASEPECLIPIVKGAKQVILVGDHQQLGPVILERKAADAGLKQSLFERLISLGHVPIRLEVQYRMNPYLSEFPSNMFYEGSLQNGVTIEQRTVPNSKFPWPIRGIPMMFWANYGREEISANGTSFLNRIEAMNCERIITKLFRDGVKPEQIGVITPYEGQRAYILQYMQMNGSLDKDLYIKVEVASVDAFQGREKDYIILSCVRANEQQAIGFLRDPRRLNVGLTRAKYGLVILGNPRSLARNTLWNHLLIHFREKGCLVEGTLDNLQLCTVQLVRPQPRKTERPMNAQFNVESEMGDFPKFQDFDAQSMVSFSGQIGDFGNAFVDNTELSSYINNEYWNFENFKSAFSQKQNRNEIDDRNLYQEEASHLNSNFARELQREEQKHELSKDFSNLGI
T5 sequence 2: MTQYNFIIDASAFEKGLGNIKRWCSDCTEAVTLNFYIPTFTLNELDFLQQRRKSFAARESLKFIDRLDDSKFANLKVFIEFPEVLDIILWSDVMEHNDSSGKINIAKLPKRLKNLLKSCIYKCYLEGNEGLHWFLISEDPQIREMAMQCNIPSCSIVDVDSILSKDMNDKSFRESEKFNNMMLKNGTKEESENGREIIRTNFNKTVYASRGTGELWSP
T5 sequence 3: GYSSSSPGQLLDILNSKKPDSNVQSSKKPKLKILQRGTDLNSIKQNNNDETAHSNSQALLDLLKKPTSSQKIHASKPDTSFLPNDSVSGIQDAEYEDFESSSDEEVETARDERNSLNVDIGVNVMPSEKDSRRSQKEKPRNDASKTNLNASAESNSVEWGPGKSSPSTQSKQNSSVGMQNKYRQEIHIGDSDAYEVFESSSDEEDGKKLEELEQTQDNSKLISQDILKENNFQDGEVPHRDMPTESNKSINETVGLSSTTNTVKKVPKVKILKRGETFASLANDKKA

Series [6] has as its target T6, Upf1-FL;Dcp2-UBM (Saccharomyces cerevisiae;Saccharomyces …, UniProt P30771;P53550 1-971;434-720, |).
T6 sequence 1: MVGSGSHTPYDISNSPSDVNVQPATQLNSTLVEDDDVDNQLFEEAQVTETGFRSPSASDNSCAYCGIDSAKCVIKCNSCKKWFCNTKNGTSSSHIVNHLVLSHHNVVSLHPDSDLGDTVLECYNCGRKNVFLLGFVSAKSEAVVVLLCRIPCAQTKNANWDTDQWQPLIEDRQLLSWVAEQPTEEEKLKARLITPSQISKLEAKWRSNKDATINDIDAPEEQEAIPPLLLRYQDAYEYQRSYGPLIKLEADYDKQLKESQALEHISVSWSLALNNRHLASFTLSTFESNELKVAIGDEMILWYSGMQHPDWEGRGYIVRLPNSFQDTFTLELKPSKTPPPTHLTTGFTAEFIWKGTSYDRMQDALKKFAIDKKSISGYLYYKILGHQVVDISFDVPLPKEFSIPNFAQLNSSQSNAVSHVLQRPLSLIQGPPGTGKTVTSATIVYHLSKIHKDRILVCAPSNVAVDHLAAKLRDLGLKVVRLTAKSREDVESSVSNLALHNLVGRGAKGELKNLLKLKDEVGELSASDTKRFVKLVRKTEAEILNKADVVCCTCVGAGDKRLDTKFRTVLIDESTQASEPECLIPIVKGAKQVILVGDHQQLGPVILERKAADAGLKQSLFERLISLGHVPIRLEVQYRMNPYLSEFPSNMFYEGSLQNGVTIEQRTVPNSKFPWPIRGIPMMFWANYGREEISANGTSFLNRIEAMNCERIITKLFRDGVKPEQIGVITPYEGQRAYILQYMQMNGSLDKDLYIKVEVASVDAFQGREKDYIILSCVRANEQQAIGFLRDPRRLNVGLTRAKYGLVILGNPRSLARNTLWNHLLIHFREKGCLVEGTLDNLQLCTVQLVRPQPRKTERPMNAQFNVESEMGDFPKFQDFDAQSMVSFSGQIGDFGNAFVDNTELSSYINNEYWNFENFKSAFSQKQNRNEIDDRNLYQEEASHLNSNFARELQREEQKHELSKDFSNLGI
T6 sequence 2: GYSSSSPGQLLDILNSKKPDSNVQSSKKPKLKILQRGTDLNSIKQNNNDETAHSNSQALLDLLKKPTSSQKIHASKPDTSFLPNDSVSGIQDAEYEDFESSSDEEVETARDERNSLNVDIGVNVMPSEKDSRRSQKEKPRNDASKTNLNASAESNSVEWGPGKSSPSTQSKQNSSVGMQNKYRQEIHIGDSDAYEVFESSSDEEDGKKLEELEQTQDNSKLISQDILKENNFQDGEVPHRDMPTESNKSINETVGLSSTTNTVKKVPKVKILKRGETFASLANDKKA

For the molecule CGUCCAUCUGGUCAUCUAGUGAUAUCAUCG (ssRNA) [3'-biotinylated RNA (30-mer in Methods, called 33-mer in Results)], the binding result is recorded as “no binding” in series [1]; “binds” in series [2]; “no binding” in series [3]; “binds” in series [4]; “binds” in series [5]; “binds” in series [6].
